Measurements published in patent US20130171217A1, “ENZYMATIC PERACID GENERATION FOR USE IN SKIN CARE PRODUCTS” (E I DU PONT DE NEMOURS AND COMPANY, priority 2010, published 2013).

What was measured:
[1] = Retention of perhydrolase on hair detected by hydrolase activity; format: binding
Procedure: For hair binding experiments brown hair tresses (International Hair Importers and Products, Glensdale N.Y.) were used. The hair was washed with 2% SLES, rinsed extensively with deionized water and air dried.
Around 20 mg of 1 cm brown hair fragments was added in a 1.8-mL microfuge tube. Hydrolase assay buffer (1.2 mL) as added to the hair followed by the addition of the perhydrolase enzymes to the solution. The enzymes were allowed to bind the hair for 30 min with gentle agitation (24 rpm) on an Adams Nutator (model 1105, Becton Dickinson, Franklin Lakes, N.J.). No enzyme controls, with hair and without hair, were included in the binding experiment to account for non-enzymatic hydrolysis of the pNPA hydrolase reagent. After the binding step, a 1.0-mL aliquot of the binding buffer was transferred to a new tube to quantitate the amount of unbound enzyme. Additional binding buffer was removed and the hair fragments were washed 4 times with 1 mL of 1% TWEEN®-20 in hydrolase buffer, followed by 2 washes with 1 mL each in hydrolase buffer. The hair fragments were then resuspended in 1 mL of hydrolase assay and the hydrolase activity that remained bound to the hair was measured. The C277S (“PAH”) variant of Thermotoga maritima perhydrolase (SEQ ID NO: 293) was used as a control for an un-targeted perhydrolase.

[2] = Perhydrolase activity remaining bound to hair, ABTS assay; format: binding, human; settings: 50 μg/mL
Procedure: Ten mg of human hair was submerged in 2 mL of a binding solution containing 50 μg/mL of the Thermotoga maritima perhydrolase targeted to hair via the hair binding peptide HC263 (C277S-HC263; SEQ ID NO: 288; also referred to herein as “HC1121”) in 50 mM pH 7.2 potassium phosphate buffer containing 5% of the test surfactant. The test surfactants were two nonionic surfactants: TWEEN®-20 (Sigma, St Louis, Mo.), and TRITON®-X 100 (Aldrich, St Louis, Mo.), and two ionic surfactants: CHEMBETAINE™ CAD (Cocamidopropyl betaine; Lubrizol, Wickliffe, Ohio) and RHODAPEX® ES-2K (sodium laurel ether sulfate; Rhodia Novecare, Cranbury, N.J.).
Hair was incubated in the binding solution at room temperature (˜22° C.) with gentle agitation for 30 minutes, at which time the solution was removed by aspiration and the hair rinsed with 1% TWEEN®-20 in 50 mM pH 7.2 potassium phosphate buffer. The hair was removed from the tube, blotted dry with paper towel, and transferred to a new set of tubes. The hair was rinsed once with 1% TWEEN®-20 in 50 mM pH 7.2 potassium phosphate buffer and then rinsed three times with 50 mM pH 7.2 potassium phosphate buffer. Perhydrolase activity remaining bound to the hair was determined by the ABTS assay.
The ABTS assay was performed as follows: hair samples treated as described above were transferred to new 2-mL microcentrifuge tubes (Eppendorf Protein LoBind; Eppendorf North America, Hauppauge, N.Y.) To each tube was added 480 μL of PAH buffer (50 mM potassium phosphate, pH 7.2), 14 μL of 39% hydrogen peroxide (Sigma 3410), and 6 μL triacetin (Sigma-Aldrich W200700). The perhydrolase reaction was allowed to proceed for 10 minutes at room temperature (˜22-25° C.). The reaction was stopped by diluting aliquots 10×, 100× and 1000× with 10 mM phosphoric acid. For detection 50 μL of 1 M acetic acid, 50 μL of 40 mg/mL potassium iodide, and 50 μL of 4 mM ABTS (2,2′-azino-bis(3-ethylbenzthiazoline-6-sulphonic acid; Sigma, St Louis, Mo.) were added to 50 μL of the above dilutions. Color was allowed to develop for 10 minutes and read in a spectrophotometer at 405 nm. Values from no-enzyme controls were subtracted to yield values attributable only to enzyme activity. A standard curve of OD 405 nm vs PAA concentration in ppm yielded a conversion factor of 8.75, such that an OD 405 nm of 1.0 corresponded to approximately 8.75 ppm PAA. This value was then multiplied by the appropriate dilution to arrive at the PAA concentration in the perhydrolase reaction.
The Thermotoga maritima perhydrolase targeted to hair via the hair binding peptide HC263 (C277S-HC263; SEQ ID NO: 288) was diluted to 50 μg/mL in a solution of 5% PEG-80 sorbitan laurate in 100 mM citrate-phosphate buffer adjusted to pH 4.9, pH 5.5, pH 6.0, or pH 7.0. Ten mg of human hair was added to 2 mL of the above formulations and incubated with gentle agitation for 5 minutes at room temperature to allow enzyme binding to hair. A no-enzyme control sample was included with each pH. After binding, the binding solution was removed by aspiration and the hair was washed with 2 mL of 1% TWEEN®-20 in 50 mM pH 7.2 potassium phosphate buffer. The hair was removed from the tube, blotted dry with paper towel, and transferred to a new set of tubes. The hair was rinsed once with 1% TWEEN®-20 in 50 mM pH 7.2 potassium phosphate buffer and then rinsed three time with 50 mM pH 7.2 potassium phosphate buffer. Perhydrolase activity remaining bound to the hair was determined by the ABTS assay. The results are given as ppm PAA produced at 10 minutes (after subtraction of the no-enzyme control values)
The Thermotoga maritima perhydrolase targeted to hair via the hair binding peptide HC263 (C277S-HC263; SEQ ID NO: 288) was diluted to 50 μg/mL in a solution of 5% PEG-80 sorbitan laurate in 100 mM citrate-phosphate buffer adjusted to pH 6.0. […]

[3] = Single fiber tensile strength and bleaching start after two-step enzymatic application; settings: two-step with buffer rinse
Procedure: Hair samples were cut into pieces 4-inches in length. The denier number (liner mass density) of each hair fiber was measured by Textechno Vibromat Instrument (Textechno Herbert Stein GmbH & Co. KG; Germany). The hair fibers were tested according to ASTM D 3822-01 (“Tensile Properties of Single Textile Fibers”; ASTM International, West Conshohocken, Pa., 2001), on an Instron testing system (Instron Model 1122 Tester; Instron, Mass.) at about 70° F. (approximately 21° C.) and 65% relative humidity. The treated area of the hair sample was placed in the middle of the gauge and both ends were gripped on the test heads. Both fiber ends were attached on a piece of tape, respectively, for easy handling and gripping on the test heads. The test used 2-inch (5.1 cm) gauge length, […], and 1.2 inch/min (3 cm/min) pulling rate. The force-strain curve of the fiber was recorded during the test. The tenacity at maximum (gf/den) was calculated by dividing maximum force (gf) by denier number (den). Note that (gf/den)/11.33=Newtons/tex (N/tex).
In a two-step application, the hair strands are first treated with perhydrolase solutions to allow the enzyme to bind hair. The hair strands are then dried or rinsed with buffer and dried. The rinse step is intended to remove excess unbound enzyme from the hair. The hair strands are soaked in triacetin and H2O2 solutions. The application is repeated for multiple times.
One experiment was carried out with C277S-HC263 and untargeted T. maritima variant C277S using the following protocol: • 1. Enzyme solutions comprising 0.5 mg/mL enzyme in 50 mM phosphate buffer (pH 8) were made with or without 10 wt % urea. • 2. Seven (7) hair strands were soaked in 0.2 mL of an enzyme solution for 10 min and then dried under N2 without prior rinsing. • 3. The hair strands were then soaked in 0.2 mL of a pH 8 solution containing 100-mM triacetin and 250-mM H2O2 for 15 min, dried, then rinsed with DI water and then dried again. • 4. Steps 2-3 were repeated up to 15 times.
Another experiment was carried out with C277S-HC263 (SEQ ID NO: 288), CPAH-HC263 (SEQ ID NO: 294), CPAH-HC1010 (SEQ ID NO: 295) and untargeted C277S using the following protocol: • 1. Enzyme solutions comprising 1.0 mg/mL enzyme in 50 mM phosphate buffer (pH 6) were prepared. For solutions containing two enzymes, the concentration of each enzyme was approximately 0.5 mg/mL. • 2. Seven (7) hair strands were soaked in 0.2 mL of an enzyme solution for 10 min, rinsed with 50 mM phosphate buffer (pH 6), and then dried under N2. • 3. The dried hair strands were then soaked into 0.2 mL of 50 mM phosphate buffer solution (pH 8) comprising 100 mM triacetin and 250 mM H2O2 for 15 min, dried, then rinsed with DI water and then dried again. • 4.

[4] = pH 6.0, binding 1 min, at 10 minutes

B1: C277S-HC1010: C277S variant of Thermotoga maritima perhydrolase fused via a flexible linker to hair-binding domain HC1010 (protein)
chain: MAFFDLPLEELKKYRPERYEEKDFDEFWEETLAESEKFPLDPVFERMESHLKTVEAYDVTFSGYRGQRIKGWLLVPKLEEEKLPCVVQYIGYNGGRGFPHDWLFWPSMGYICFVMDTRGQGSGWLKGDTPDYPEGPVDPQYPGFMTRGILDPRTYYYRRVFTDAVRAVEAAASFPQVDQERIVIAGGSQGGGIALAVSALSKKAKALLCDVPFLCHFRRAVQLVDTHPYAEITNFLKTHRDKEEIVFRTLSYFDGVNFAARAKIPALFSVGLMDNISPPSTVFAAYNYYAGPKEIRIYPYNNHEGGGSFQAVEQVKFLKKLFEKGGPGSGGAGSPGSAGGPGSAQSQLPDKHSGLHERAPQRYGSGTAEIQSSKNPNPHPQRSWTNGSGHNHMQERYTDPQHSPSVNGLGSGHDHKNQKETHQRHAASSHHHHHH
- Activity in the first TWEEN®-20 wash ([1]; hydrolase activity, 1% TWEEN®-20): 20%
- Activity retained on hair after 4 TWEEN® 20 washes ([1]; hydrolase activity, 4 washes 1% TWEEN®-20 and 2 buffer washes): 41%
- Activity unbound ([1]; hydrolase activity, ~20 mg hair, binding 30 min): 20%
- 100% activity (hydrolase activity added to the tube) ([1]; tube containing ~20 mg of hair, not subjected to washes): 125 µmol/min

B2: SEQ ID NO: 341: C277S variant of Thermotoga maritima perhydrolase fused to hair binding domain HC263KtoR via a flexible linker (protein)
chain: MAFFDLPLEELKKYRPERYEEKDFDEFWEETLAESEKFPLDPVFERMESHLKTVEAYDVTFSGYRGQRIKGWLLVPKLEEEKLPCVVQYIGYNGGRGFPHDWLFWPSMGYICFVMDTRGQGSGWLKGDTPDYPEGPVDPQYPGFMTRGILDPRTYYYRRVFTDAVRAVEAAASFPQVDQERIVIAGGSQGGGIALAVSALSKKAKALLCDVPFLCHFRRAVQLVDTHPYAEITNFLKTHRDKEEIVFRTLSYFDGVNFAARAKIPALFSVGLMDNISPPSTVFAAYNYYAGPKEIRIYPYNNHEGGGSFQAVEQVKFLKKLFEKGGPGSGGAGSPGSAGGPGSPSAQSQLPDRHSGLHERAPQRYGPEPEPEPEPIPEPPREAPVVIERPRPRPRPRPRPPAHDHRNQRETHQRHAAGSGGGGSPHHHHHH
- ppm PAA ([2]; 5% PEG-80 sorbitan laurate pH 6.0, binding 10 min, PAA at 10 minutes): 958 ppm

B3: SEQ ID NO: 314: untargeted S54V variant of the aryl esterase from Mycobacterium smegmatis (protein, listed as Mycobacterium smegmatis)
chain: MAKRILCFGDSLTWGWVPVEDGAPTERFAPDVRWTGVLAQQLGADFEVIEEGLVARTTNIDDPTDPRLNGASYLPSCLATHLPLDLVIIMLGTNDTKAYFRRTPLDIALGMSVLVTQVLTSAGGVGTTYPAPKVLVVSPPPLAPMPHPWFQLIFEGGEQKTTELARVYSALASFMKVPFFDAGSVISTDGVDGIHFTEANNRDLGVALAEQVRSLL
- OD 405nm [2, 4]: 0.003
- Peracetic acid [2, 4]: 2.60 ppm

B4: CPAH-HC263: fusion peptide C277S-HC263 further comprising a D128G substitution (protein)
chain: MAFFDLPLEELKKYRPERYEEKDFDEFWEETLAESEKFPLDPVFERMESHLKTVEAYDVTFSGYRGQRIKGWLLVPKLEEEKLPCVVQYIGYNGGRGFPHDWLFWPSMGYICFVMDTRGQGSGWLKGGTPDYPEGPVDPQYPGFMTRGILDPRTYYYRRVFTDAVRAVEAAASFPQVDQERIVIAGGSQGGGIALAVSALSKKAKALLCDVPFLCHFRRAVQLVDTHPYAEITNFLKTHRDKEEIVFRTLSYFDGVNFAARAKIPALFSVGLMDNISPPSTVFAAYNYYAGPKEIRIYPYNNHEGGGSFQAVEQVKFLKKLFEKGGPGSGGAGSPGSAGGPGSPSAQSQLPDKHSGLHERAPQRYGPEPEPEPEPIPEPPKEAPVVIEKPKPKPKPKPKPPAHDHKNQKETHQRHAAGSGGGGSPHHHHHH
- Bleaching Start ([3]; 1.0 mg/mL enzyme pH 6): 9th
- Tenacity @ max ([3]; 1.0 mg/mL enzyme pH 6, 100 mM triacetin, 250 mM H2O2, up to 13 repeats): 0.6 gf/den
